Test results taken from patent US20160272693A1 (ZEALAND PHARMA A S, published 2016).
*1 amine or outer side, *2 acyl side, *3 side chain or, on linkers, in order; H or OH if unused. Bridges are numbered along the chain shown (N, C = ends). [ ]: non-standard residue; d: D form. The star is where a group is joined. C20 diacid = O=C(O)CCCCCCCCCCCCCCCCCCC(=O)*; γGlu = O=C(O)[C@H](CCC(=O)[*:2])N[*:1]; Hyp = O=C(O)[C@@H]1C[C@@H](O)CN1; NMeI = CC[C@H](C)[C@H](NC)C(=O)O; Sar = CNCC(=O)O

T1: human amylin receptor 3 (hAMYR3), hCTR2 co-expressed with human receptor activity modifying protein 3 (hRAMP3) (human, UniProt P30988 25-474; O60896 24-148)
T1 sequence (looked up) 1: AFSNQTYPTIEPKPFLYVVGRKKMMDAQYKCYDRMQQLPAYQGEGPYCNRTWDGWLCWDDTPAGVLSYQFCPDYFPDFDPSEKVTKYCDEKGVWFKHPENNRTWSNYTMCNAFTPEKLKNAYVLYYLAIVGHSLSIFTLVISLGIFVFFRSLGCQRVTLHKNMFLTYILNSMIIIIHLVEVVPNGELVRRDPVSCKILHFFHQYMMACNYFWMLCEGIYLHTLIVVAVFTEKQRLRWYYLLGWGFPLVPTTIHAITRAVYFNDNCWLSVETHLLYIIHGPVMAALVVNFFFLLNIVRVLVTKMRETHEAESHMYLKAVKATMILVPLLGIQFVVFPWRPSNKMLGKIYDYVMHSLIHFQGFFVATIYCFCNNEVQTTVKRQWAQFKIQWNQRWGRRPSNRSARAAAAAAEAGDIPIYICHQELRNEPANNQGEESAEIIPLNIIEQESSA
T1 sequence (looked up) 2: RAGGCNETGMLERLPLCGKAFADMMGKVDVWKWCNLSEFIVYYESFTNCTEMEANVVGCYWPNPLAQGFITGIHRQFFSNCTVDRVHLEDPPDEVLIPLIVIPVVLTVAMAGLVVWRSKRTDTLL


molecular target: T1, human amylin receptor 3 (hAMYR3), hCTR2 …; test: cell-based or functional assay

Row | Binder | hAMYR3 EC50 (nM); cAMP induction [nM]
1 | {C20 diacid-γGlu}-RCNTATCATERLAHFLQRSSF[Sar]A[NMeI]LSSTEVGSDT[Hyp]-NH2 (disulfide 2-7; SMILES CC[C@H](C)[C@@H](C(=O)N[C@@H](CC(C)C)C(=O)N[C@@H](CO)C(=O)N[C@@H](CO)C(=O)N[C@H](C(=O)N[C@@H](CCC(=O)O)C(=O)N[C@H](C(=O)NCC(=O)N[C@@H](CO)C(=O)N[C@@H](CC(=O)O)C(=O)N[C@H](C(=O)N1C[C@H](O)C[C@H]1C(N)=O)[C@@H](C)O)C(C)C)[C@@H](C)O)N(C)C(=O)[C@H](C)NC(=O)CN(C)C(=O)[C@H](Cc1ccccc1)NC(=O)[C@H](CO)NC(=O)[C@H](CO)NC(=O)[C@H](CCCNC(=N)N)NC(=O)[C@H](CCC(N)=O)NC(=O)[C@H](CC(C)C)NC(=O)[C@H](Cc1ccccc1)NC(=O)[C@H](Cc1c[nH]cn1)NC(=O)[C@H](C)NC(=O)[C@H](CC(C)C)NC(=O)[C@H](CCCNC(=N)N)NC(=O)[C@H](CCC(=O)O)NC(=O)[C@@H](NC(=O)[C@H](C)NC(=O)[C@@H]1CSSC[C@H](NC(=O)[C@H](CCCNC(=N)N)NC(=O)CC[C@H](NC(=O)CCCCCCCCCCCCCCCCCCC(=O)O)C(=O)O)C(=O)N[C@@H](CC(N)=O)C(=O)N[C@@H]([C@@H](C)O)C(=O)N[C@@H](C)C(=O)N[C@@H]([C@@H](C)O)C(=O)N1)[C@@H](C)O) [[19CD]-isoGlu-R-C( )-NTAT-C( )-ATERLAHFLQRSSF-Gly(Me)-A-Ile(Me)-LSSTEVGSDT-Hyp-NH2 (Compd. 60)] | 0.09
2 | {C20 diacid-γGlu}-RCNTATCATERLAHFLQRSSF[Sar]A[NMeI]LSSTEVGSNTP-NH2 (disulfide 2-7; SMILES CC[C@H](C)[C@@H](C(=O)N[C@@H](CC(C)C)C(=O)N[C@@H](CO)C(=O)N[C@@H](CO)C(=O)N[C@H](C(=O)N[C@@H](CCC(=O)O)C(=O)N[C@H](C(=O)NCC(=O)N[C@@H](CO)C(=O)N[C@@H](CC(N)=O)C(=O)N[C@H](C(=O)N1CCC[C@H]1C(N)=O)[C@@H](C)O)C(C)C)[C@@H](C)O)N(C)C(=O)[C@H](C)NC(=O)CN(C)C(=O)[C@H](Cc1ccccc1)NC(=O)[C@H](CO)NC(=O)[C@H](CO)NC(=O)[C@H](CCCNC(=N)N)NC(=O)[C@H](CCC(N)=O)NC(=O)[C@H](CC(C)C)NC(=O)[C@H](Cc1ccccc1)NC(=O)[C@H](Cc1c[nH]cn1)NC(=O)[C@H](C)NC(=O)[C@H](CC(C)C)NC(=O)[C@H](CCCNC(=N)N)NC(=O)[C@H](CCC(=O)O)NC(=O)[C@@H](NC(=O)[C@H](C)NC(=O)[C@@H]1CSSC[C@H](NC(=O)[C@H](CCCNC(=N)N)NC(=O)CC[C@H](NC(=O)CCCCCCCCCCCCCCCCCCC(=O)O)C(=O)O)C(=O)N[C@@H](CC(N)=O)C(=O)N[C@@H]([C@@H](C)O)C(=O)N[C@@H](C)C(=O)N[C@@H]([C@@H](C)O)C(=O)N1)[C@@H](C)O) [[19CD]-isoGlu-R-C( )-NTAT-C( )-ATERLAHFLQRSSF-Gly(Me)-A-Ile(Me)-LSSTEVGSNTP-NH2 (Compd. 62)] | 0.22
3 | {C20 diacid}-[γGlu]RCGTATCATERLAHFLNRSSF[Sar]A[NMeI]LSSTEVGSNT[Hyp]-NH2 (disulfide 3-8; SMILES CC[C@H](C)[C@@H](C(=O)N[C@@H](CC(C)C)C(=O)N[C@@H](CO)C(=O)N[C@@H](CO)C(=O)N[C@H](C(=O)N[C@@H](CCC(=O)O)C(=O)N[C@H](C(=O)NCC(=O)N[C@@H](CO)C(=O)N[C@@H](CC(N)=O)C(=O)N[C@H](C(=O)N1C[C@H](O)C[C@H]1C(N)=O)[C@@H](C)O)C(C)C)[C@@H](C)O)N(C)C(=O)[C@H](C)NC(=O)CN(C)C(=O)[C@H](Cc1ccccc1)NC(=O)[C@H](CO)NC(=O)[C@H](CO)NC(=O)[C@H](CCCNC(=N)N)NC(=O)[C@H](CC(N)=O)NC(=O)[C@H](CC(C)C)NC(=O)[C@H](Cc1ccccc1)NC(=O)[C@H](Cc1c[nH]cn1)NC(=O)[C@H](C)NC(=O)[C@H](CC(C)C)NC(=O)[C@H](CCCNC(=N)N)NC(=O)[C@H](CCC(=O)O)NC(=O)[C@@H](NC(=O)[C@H](C)NC(=O)[C@@H]1CSSC[C@H](NC(=O)[C@H](CCCNC(=N)N)NC(=O)CC[C@H](NC(=O)CCCCCCCCCCCCCCCCCCC(=O)O)C(=O)O)C(=O)NCC(=O)N[C@@H]([C@@H](C)O)C(=O)N[C@@H](C)C(=O)N[C@@H]([C@@H](C)O)C(=O)N1)[C@@H](C)O) [[19CD]-isoGlu-R-C( )-GTAT-C( )-ATERLAHFLNRSSF-Gly(Me)-A-Ile(Me)-LSSTEVGSNT-Hyp-NH2 (Compd. 6)] | 0.22

Now from value to binder:

Row | hAMYR3 EC50 (nM); cAMP induction [nM] | Binder
4 | 0.37 | {C20 diacid}-[γGlu]RCPTATCATERLAHFLQRSSF[Sar]A[NMeI]LSSTEVGSNT[Hyp]-NH2 (disulfide 3-8; SMILES CC[C@H](C)[C@@H](C(=O)N[C@@H](CC(C)C)C(=O)N[C@@H](CO)C(=O)N[C@@H](CO)C(=O)N[C@H](C(=O)N[C@@H](CCC(=O)O)C(=O)N[C@H](C(=O)NCC(=O)N[C@@H](CO)C(=O)N[C@@H](CC(N)=O)C(=O)N[C@H](C(=O)N1C[C@H](O)C[C@H]1C(N)=O)[C@@H](C)O)C(C)C)[C@@H](C)O)N(C)C(=O)[C@H](C)NC(=O)CN(C)C(=O)[C@H](Cc1ccccc1)NC(=O)[C@H](CO)NC(=O)[C@H](CO)NC(=O)[C@H](CCCNC(=N)N)NC(=O)[C@H](CCC(N)=O)NC(=O)[C@H](CC(C)C)NC(=O)[C@H](Cc1ccccc1)NC(=O)[C@H](Cc1c[nH]cn1)NC(=O)[C@H](C)NC(=O)[C@H](CC(C)C)NC(=O)[C@H](CCCNC(=N)N)NC(=O)[C@H](CCC(=O)O)NC(=O)[C@@H](NC(=O)[C@H](C)NC(=O)[C@@H]1CSSC[C@H](NC(=O)[C@H](CCCNC(=N)N)NC(=O)CC[C@H](NC(=O)CCCCCCCCCCCCCCCCCCC(=O)O)C(=O)O)C(=O)N2CCC[C@H]2C(=O)N[C@@H]([C@@H](C)O)C(=O)N[C@@H](C)C(=O)N[C@@H]([C@@H](C)O)C(=O)N1)[C@@H](C)O) [[19CD]-isoGlu-R-C( )-PTAT-C( )-ATERLAHFLQRSSF-Gly(Me)-A-Ile(Me)-LSSTEVGSNT-Hyp-NH2 (Compd. 63)]
5 | 0.11 | {C20 diacid}-[γGlu]RCPTATCATDRLAHFLQRSSF[Sar]A[NMeI]LSSTDVGSNT[Hyp]-NH2 (disulfide 3-8; SMILES CC[C@H](C)[C@@H](C(=O)N[C@@H](CC(C)C)C(=O)N[C@@H](CO)C(=O)N[C@@H](CO)C(=O)N[C@H](C(=O)N[C@@H](CC(=O)O)C(=O)N[C@H](C(=O)NCC(=O)N[C@@H](CO)C(=O)N[C@@H](CC(N)=O)C(=O)N[C@H](C(=O)N1C[C@H](O)C[C@H]1C(N)=O)[C@@H](C)O)C(C)C)[C@@H](C)O)N(C)C(=O)[C@H](C)NC(=O)CN(C)C(=O)[C@H](Cc1ccccc1)NC(=O)[C@H](CO)NC(=O)[C@H](CO)NC(=O)[C@H](CCCNC(=N)N)NC(=O)[C@H](CCC(N)=O)NC(=O)[C@H](CC(C)C)NC(=O)[C@H](Cc1ccccc1)NC(=O)[C@H](Cc1c[nH]cn1)NC(=O)[C@H](C)NC(=O)[C@H](CC(C)C)NC(=O)[C@H](CCCNC(=N)N)NC(=O)[C@H](CC(=O)O)NC(=O)[C@@H](NC(=O)[C@H](C)NC(=O)[C@@H]1CSSC[C@H](NC(=O)[C@H](CCCNC(=N)N)NC(=O)CC[C@H](NC(=O)CCCCCCCCCCCCCCCCCCC(=O)O)C(=O)O)C(=O)N2CCC[C@H]2C(=O)N[C@@H]([C@@H](C)O)C(=O)N[C@@H](C)C(=O)N[C@@H]([C@@H](C)O)C(=O)N1)[C@@H](C)O) [[19CD]-isoGlu-R-C( )-PTAT-C( )-ATDRLAHFLQRSSF-Gly(Me)-A-Ile(Me)-LSSTDVGSNT-Hyp-NH2 (Compd. 59)]
6 | 0.17 | {C20 diacid}-[γGlu]RCNTATCATQRLAHFLQRSSF[Sar]A[NMeI]LSSTEVGSNTP-NH2 (disulfide 3-8; SMILES CC[C@H](C)[C@@H](C(=O)N[C@@H](CC(C)C)C(=O)N[C@@H](CO)C(=O)N[C@@H](CO)C(=O)N[C@H](C(=O)N[C@@H](CCC(=O)O)C(=O)N[C@H](C(=O)NCC(=O)N[C@@H](CO)C(=O)N[C@@H](CC(N)=O)C(=O)N[C@H](C(=O)N1CCC[C@H]1C(N)=O)[C@@H](C)O)C(C)C)[C@@H](C)O)N(C)C(=O)[C@H](C)NC(=O)CN(C)C(=O)[C@H](Cc1ccccc1)NC(=O)[C@H](CO)NC(=O)[C@H](CO)NC(=O)[C@H](CCCNC(=N)N)NC(=O)[C@H](CCC(N)=O)NC(=O)[C@H](CC(C)C)NC(=O)[C@H](Cc1ccccc1)NC(=O)[C@H](Cc1c[nH]cn1)NC(=O)[C@H](C)NC(=O)[C@H](CC(C)C)NC(=O)[C@H](CCCNC(=N)N)NC(=O)[C@H](CCC(N)=O)NC(=O)[C@@H](NC(=O)[C@H](C)NC(=O)[C@@H]1CSSC[C@H](NC(=O)[C@H](CCCNC(=N)N)NC(=O)CC[C@H](NC(=O)CCCCCCCCCCCCCCCCCCC(=O)O)C(=O)O)C(=O)N[C@@H](CC(N)=O)C(=O)N[C@@H]([C@@H](C)O)C(=O)N[C@@H](C)C(=O)N[C@@H]([C@@H](C)O)C(=O)N1)[C@@H](C)O) [[19CD]-isoGlu-R-C( )-NTAT-C( )-ATQRLAHFLQRSSF-Gly(Me)-A-Ile(Me)-LSSTEVGSNTP-NH2 (Compd. 61)]
7 | 0.15 | {C20 diacid}-[γGlu]RCPTATCATQRLAHFLQRSSF[Sar]A[NMeI]LSSTEVGSNT[Hyp]-NH2 (disulfide 3-8; SMILES CC[C@H](C)[C@@H](C(=O)N[C@@H](CC(C)C)C(=O)N[C@@H](CO)C(=O)N[C@@H](CO)C(=O)N[C@H](C(=O)N[C@@H](CCC(=O)O)C(=O)N[C@H](C(=O)NCC(=O)N[C@@H](CO)C(=O)N[C@@H](CC(N)=O)C(=O)N[C@H](C(=O)N1C[C@H](O)C[C@H]1C(N)=O)[C@@H](C)O)C(C)C)[C@@H](C)O)N(C)C(=O)[C@H](C)NC(=O)CN(C)C(=O)[C@H](Cc1ccccc1)NC(=O)[C@H](CO)NC(=O)[C@H](CO)NC(=O)[C@H](CCCNC(=N)N)NC(=O)[C@H](CCC(N)=O)NC(=O)[C@H](CC(C)C)NC(=O)[C@H](Cc1ccccc1)NC(=O)[C@H](Cc1c[nH]cn1)NC(=O)[C@H](C)NC(=O)[C@H](CC(C)C)NC(=O)[C@H](CCCNC(=N)N)NC(=O)[C@H](CCC(N)=O)NC(=O)[C@@H](NC(=O)[C@H](C)NC(=O)[C@@H]1CSSC[C@H](NC(=O)[C@H](CCCNC(=N)N)NC(=O)CC[C@H](NC(=O)CCCCCCCCCCCCCCCCCCC(=O)O)C(=O)O)C(=O)N2CCC[C@H]2C(=O)N[C@@H]([C@@H](C)O)C(=O)N[C@@H](C)C(=O)N[C@@H]([C@@H](C)O)C(=O)N1)[C@@H](C)O) [[19CD]-isoGlu-R-C( )-PTAT-C( )-ATQRLAHFLQRSSF-Gly(Me)-A-Ile(Me)-LSSTEVGSNT-Hyp-NH2 (Compd. 64)]
